For the experiment, the target named is T1, Rfa3 DNA-binding domain-E (DBD-E), OB domain, residues 1-99 (S. cerevisiae, UniProt P26755 1-99, fluorescent label NT-495 (Monolith NT protein-labeling Kit Blue-Cys) on free cysteine residues).
T1 construct: Rfa3 (RPA14 in humans), S. cerevisiae Replication Protein A smallest subunit, residues 1-99; the C-terminal trimerisation helix is removed; 3C-cleavable GST fusion; also called Rfa3-OB; Rfa3-OB domain; source: E. coli BL21 (DE3), purified (glutathione sepharose 4B, on-column 3C cleavage, SEC)
T1 sequence (P26755 1-99): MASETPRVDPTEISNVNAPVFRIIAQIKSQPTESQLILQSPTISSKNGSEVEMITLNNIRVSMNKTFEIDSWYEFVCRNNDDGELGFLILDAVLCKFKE
The experiment is described as follows: MST; 50 nM NT-495-labeled DBD-E (or mutant) mixed with equal volumes of a dilution series of DBD-A or DBD-A^S178D; 20 mM Tris pH 7.5, 150 mM NaCl, 0.5 mM TCEP, 0.01% Tween-20, 0.1 mg/ml BSA; 25 °C; apparent EC50 from the Hill equation. The conditions noted are these: both partners purified.

Numbering of substitutions follows the chain as printed. In names and notes the source's numbering stands.

B1: Rfa1 DNA-binding domain-A (DBD-A), residues 178-294 (domain or fragment, S. cerevisiae, UniProt P22336 178-294, looked up)
chain: SQKTRPIFAIEQLSPYQNVWTIKARVSYKGEIKTWHNQRGDGKLFNVNFLDTSGEIRATAFNDFATKFNEILQEGKVYYVSKAKLQPAKPQFTNLTHPYELNLDRDTVIEECFDESN
notes: Rfa1 (RPA70 in humans), S. cerevisiae Replication Protein A largest subunit, DBD-A, residues 178-294; amplified from the codon-optimized RPA expression plasmid, cloned into pOPINJ; 3C-cleavable GST fusion; also called Rfa1-DBD-A; source: E. coli BL21 (DE3), purified (glutathione sepharose 4B, on-column 3C cleavage, SEC)
As a reminder, the EC50 is the concentration at which the effect is half-maximal. With B1, the half-maximal effective concentration (EC50) was roughly 100 µM.

B2: Rfa1 DBD-A (residues 178-294) phosphomimetic S178D (domain or fragment, S. cerevisiae, UniProt P22336 178-294, looked up)
chain: B1 chain with S1D
notes: Rfa1, S. cerevisiae, DBD-A, residues 178-294 with S178D (first residue of the fragment); also called DBD-A^S178D; S178D mutant DBD-A; source: E. coli BL21 (DE3), purified (glutathione sepharose 4B, on-column 3C cleavage, SEC)
Take B2: the EC50 was roughly 30 µM.

The record behind these values is article PMC6303327, “A structural and dynamic model for the assembly of Replication Protein A on single-stranded DNA” (Nature Communications, 2018).
